In this test the target is NLS-PpsR2-VP16 (Rhodopseudomonas palustris; H. simplex). In words: cell-based or functional assay.

A value given as a limit tells only on which side of the number the result lay.

As for “BphP1-mCherry-TetR (from UniProt P04483 1-207)”, the EGFP signal, illuminated over dark-treated cells (pTRE-Tight-EGFP reporter, flow cytometry) is over 27 fold; the Rluc8 activation with 740 nm light against 470 nm light in cultured HeLa cells was found to be 18 fold; the Rluc8 light-to-dark signal ratio in mouse liver after hydrodynamic transfection (pKA-207I10), 48 h was 5.7 fold; the Rluc8 signal, 740 nm illuminated mice over mice in darkness, HeLa cells injected subcutaneously, 48 h worked out at 32 fold. This substance showed an SEAP level, 740 nm light over darkness, after 12 h of 3 fold; an SEAP level, 740 nm light over darkness, after 48 h (pTRE-Tight-SEAP reporter, HeLa) of 40 fold; an SEAP reporter expression against the PhyB-PIF6 system, same reporter plasmid of 2 fold; a decrease of SEAP production by 12 h of 636 nm light after 12 h of 740 nm light, against cells kept in darkness of 2.3 fold. This substance also registered a half-time of SEAP accumulation under 740 nm light of 18 h and a rate of SEAP decrease in darkness after 636 nm illumination, against darkness alone of 2 fold.

The values are drawn from US20180346523A1.
